The record followed here is publication PMC11535050 (The EMBO Journal, 2024).

Data set [1] concerns the target NatT toxin (PA1030), His-tagged, wild type (Pseudomonas aeruginosa) (UniProt Q9I4U4). Description: mass photometry; co-purified NatR-NatT complexes at a final concentration of 10 nM, 50 mM Bicine pH 8.5, 50 mM KCl, Refeyn OneMP.
Data set [2] has as its target NatR anti-toxin (PA1029), co-expressed with His-tagged NatT in E. coli (Pseudomonas aeruginosa). The description is as above.
Data set [3] has the same target. Description: crystal structure; NatR-NatT wild-type complex, sitting drop, 2.5 mg/ml, 0.2 M sodium sulfate, 0.1 M Bis-Tris propane 7.5, 20% PEG 3350, 20 C.
Data set [4] deals with the molecule itself. Described as above.

As usually defined, the stoichiometry N is the number of molecules, sites or subunits per partner or assembly. In data set [1], “NatR anti-toxin (PA1029), co-expressed with His-tagged NatT in E. coli (natural protein)” showed a stoichiometry N (NatR per NatT) of 2. The stoichiometry N in data set [2] and in data set [3] was 2 in each case.

B1: NatT toxin (PA1030), His-tagged, wild type (enzyme)
chain: SEIWRQCKGERHIRPLQGRLVRLVESQEQVATLQLVDTLEEQALLEELLESSKPPVPADAEPLHYLLKTPFRYPPLRWGSRFGRRHEPSLFYAALKLETAMAESAYYRCVLWSGMVVPPPSGRILSEHASFEAGWKVERGIRLQAPPFSDHEAALTDIADYRAPQELGSAMRSAGVQAFEYRSARCPERGCNVALFTPAAFTEKRPRNLTPWLCETTAGYVAFKPAHVPGSPKIFSWELFLVDGKLPHPA
notes: also called NAD+ degrading toxin; RES domain toxin; source: E. coli BL21 (DE3), pRSF-Duet-1, co-expressed with NatR, purified as a complex (HisTrap, SEC)
In the case of B1, the “stoichiometry N” value in data set [4] came to 2.
